According to paper PMC12304850, “Interfacing B‐DNA and DNA Mimic Foldamers”:

Key:
[1] = molecular target: T1, SAP1 (UniProt P28324 1-93); experiment: BLI; BLI on streptavidin biosensors; buffer with NaCl (concentration not in material), 0.01 mM EDTA, 0.05% Tween 20; pH and temperature not in material; details: protein: recombinant, label: biotin
T1 sequence: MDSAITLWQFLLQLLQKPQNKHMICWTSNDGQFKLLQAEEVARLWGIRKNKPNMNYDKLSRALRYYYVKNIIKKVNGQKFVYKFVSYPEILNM

[2] = molecular target: PU.1 (UniProt P17947 165-270); experiment: as above

B1: 27 (dsDNA)
DNA 1: GACAGCATGTG
DNA 2: CACATGCTGTC
binding result ([1]; duplex): no binding | Kd [2]: 1600 nM

B2: 26 (dsDNA)
DNA 1: GACAGGATGTG
DNA 2: CACATCCTGTC
Kd ([1]; 11-bp duplex, hybridized on immobilized ssDNA): 1080 ± 6 nM | Kd [2]: 330 nM
